B1: sp¦P35908¦K22E_HUMAN (protein, UniProt P35908 1-639, looked up)
Keratin, type II cytoskeletal …: MSCQISCKSRGRGGGGGGFRGFSSGSAVVSGGSRRSTSSFSCLSRHGGGGGGFGGGGFGSRSLVGLGGTKSISISVAGGGGGFGAAGGFGGRGGGFGGGSSFGGGSGFSGGGFGGGGFGGGRFGGFGGPGGVGGLGGPGGFGPGGYPGGIHEVSVNQSLLQPLNVKVDPEIQNVKAQEREQIKTLNNKFASFIDKVRFLEQQNQVLQTKWELLQQMNVGTRPINLEPIFQGYIDSLKRYLDGLTAERTSQNSELNNMQDLVEDYKKKYEDEINKRTAAENDFVTLKKDVDNAYMIKVELQSKVDLLNQEIEFLKVLYDAEISQIHQSVTDTNVILSMDNSRNLDLDSIIAEVKAQYEEIAQRSKEEAEALYHSKYEELQVTVGRHGDSLKEIKIEISELNRVIQRLQGEIAHVKKQCKNVQDAIADAEQRGEHALKDARNKLNDLEEALQQAKEDLARLLRDYQELMNVKLALDVEIATYRKLLEGEECRMSGDLSSNVTVSVTSSTISSNVASKAAFGGSGGRGSSSGGGYSSGSSSYGSGGRQSGSRGGSGGGGSISGGGYGSGGGSGGRYGSGGGSKGGSISGGGYGSGGGKHSSGGGSRGGSSSGGGYGSGGGGSSSVKGSSGEAFGSSVTFSFR
B2: sp¦Q8TCJ2¦STT3B_HUMAN (protein, UniProt Q8TCJ2 2-826, looked up)
Dolichyl-diphosphooligosacchar …: AEPSAPESKHKSSLNSSPWSGLMALGNSRHGHHGPGAQCAHKAAGGAAPPKPAPAGLSGGLSQPAGWQSLLSFTILFLAWLAGFSSRLFAVIRFESIIHEFDPWFNYRSTHHLASHGFYEFLNWFDERAWYPLGRIVGGTVYPGLMITAGLIHWILNTLNITVHIRDVCVFLAPTFSGLTSISTFLLTRELWNQGAGLLAACFIAIVPGYISRSVAGSFDNEGIAIFALQFTYYLWVKSVKTGSVFWTMCCCLSYFYMVSAWGGYVFIINLIPLHVFVLLLMQRYSKRVYIAYSTFYIVGLILSMQIPFVGFQPIRTSEHMAAAGVFALLQAYAFLQYLRDRLTKQEFQTLFFLGVSLAAGAVFLSVIYLTYTGYIAPWSGRFYSLWDTGYAKIHIPIIASVSEHQPTTWVSFFFDLHILVCTFPAGLWFCIKNINDERVFVALYAISAVYFAGVMVRLMLTLTPVVCMLSAIAFSNVFEHYLGDDMKRENPPVEDSSDEDDKRNQGNLYDKAGKVRKHATEQEKTEEGLGPNIKSIVTMLMLMLLMMFAVHCTWVTSNAYSSPSVVLASYNHDGTRNILDDFREAYFWLRQNTDEHARVMSWWDYGYQIAGMANRTTLVDNNTWNNSHIALVGKAMSSNETAAYKIMRTLDVDYVLVIFGGVIGYSGDDINKFLWMVRIAEGEHPKDIRESDYFTPQGEFRVDKAGSPTLLNCLMYKMSYYRFGEMQLDFRTPPGFDRTRNAEIGNKDIKFKHLEEAFTSEHWLVRIYKVKAPDNRETLDHKPRVTNIFPKQKYLSKKTTKRKRGYIKNKLVFKKGKKISKKTV
B3: sp¦Q9NRP0¦OSTC_HUMAN (protein, UniProt Q9NRP0 1-149, looked up)
Oligosaccharyltransferase …: METLYRVPFLVLECPNLKLKKPPWLHMPSAMTVYALVVVSYFLITGGIIYDVIVEPPSVGSMTDEHGHQRPVAFLAYRVNGQYIMEGLASSFLFTMGGLGFIILDRSNAPNIPKLNRFLLLFIGFVCVLLSFFMARVFMRMKLPGYLMG
B4: sp¦P61006¦RAB8A_HUMAN (protein, UniProt P61006 1-204, looked up)
Ras-related protein Rab-8A: MAKTYDYLFKLLLIGDSGVGKTCVLFRFSEDAFNSTFISTIGIDFKIRTIELDGKRIKLQIWDTAGQERFRTITTAYYRGAMGIMLVYDITNEKSFDNIRNWIRNIEEHASADVEKMILGNKCDVNDKRQVSKERGEKLALDYGIKFMETSAKANINVENAFFTLARDIKAKMDKKLEGNSPQGSNQGVKITPDQQKRSSFFRC
B5: sp¦Q9H845¦ACAD9_HUMAN (protein, UniProt Q9H845 38-621, looked up)
Complex I assembly factor …: AFAKELFLGKIKKKEVFPFPEVSQDELNEINQFLGPVEKFFTEEVDSRKIDQEGKIPDETLEKLKSLGLFGLQVPEEYGGLGFSNTMYSRLGEIISMDGSITVTLAAHQAIGLKGIILAGTEEQKAKYLPKLASGEHIAAFCLTEPASGSDAASIRSRATLSEDKKHYILNGSKVWITNGGLANIFTVFAKTEVVDSDGSVKDKITAFIVERDFGGVTNGKPEDKLGIRGSNTCEVHFENTKIPVENILGEVGDGFKVAMNILNSGRFSMGSVVAGLLKRLIEMTAEYACTRKQFNKRLSEFGLIQEKFALMAQKAYVMESMTYLTAGMLDQPGFPDCSIEAAMVKVFSSEAAWQCVSEALQILGGLGYTRDYPYERILRDTRILLIFEGTNEILRMYIALTGLQHAGRILTTRIHELKQAKVSTVMDTVGRRLRDSLGRTVDLGLTGNHGVVHPSLADSANKFEENTYCFGRTVETLLLRFGKTIMEEQLVLKRVANILINLYGMTAVLSRASRSIRIGLRNHDHEVLLANTFCVEAYLQNLFSLSQLDKYAPENLDEQIKKVSQQILEKRAYICAHPLDRTC
B6: sp¦P20645¦MPRD_HUMAN (protein, UniProt P20645 27-277, looked up)
Cation-dependent …: TEEKTCDLVGEKGKESEKELALVKRLKPLFNKSFESTVGQGSDTYIYIFRVCREAGNHTSGAGLVQINKSNGKETVVGRLNETHIFNGSNWIMLIYKGGDEYDNHCGKEQRRAVVMISCNRHTLADNFNPVSEERGKVQDCFYLFEMDSSLACSPEISHLSVGSILLVTFASLVAVYVVGGFLYQRLVVGAKGMEQFPHLAFWQDLGNLVADGCDFVCRSKPRNVPAAYRGVGDDQLGEESEERDDHLLPM
B7: sp¦P57740¦NU107_HUMAN (protein, UniProt P57740 1-925, looked up)
Nuclear pore complex protein …: MDRSGFGEISSPVIREAEVTRTARKQSAQKRVLLQASQDENFGNTTPRNQVIPRTPSSFRQPFTPTSRSLLRQPDISCILGTGGKSPRLTQSSGFFGNLSMVTNLDDSNWAAAFSSQRSGLFTNTEPHSITEDVTISAVMLREDDPGEAASMSMFSDFLQSFLKHSSSTVFDLVEEYENICGSQVNILSKIVSRATPGLQKFSKTASMLWLLQQEMVTWRLLASLYRDRIQSALEEESVFAVTAVNASEKTVVEALFQRDSLVRQSQLVVDWLESIAKDEIGEFSDNIEFYAKSVYWENTLHTLKQRQLTSYVGSVRPLVTELDPDAPIRQKMPLDDLDREDEVRLLKYLFTLIRAGMTEEAQRLCKRCGQAWRAATLEGWKLYHDPNVNGGTELEPVEGNPYRRIWKISCWRMAEDELFNRYERAIYAALSGNLKQLLPVCDTWEDTVWAYFRVMVDSLVEQEIQTSVATLDETEELPREYLGANWTLEKVFEELQATDKKRVLEENQEHYHIVQKFLILGDIDGLMDEFSKWLSKSRNNLPGHLLRFMTHLILFFRTLGLQTKEEVSIEVLKTYIQLLIREKHTNLIAFYTCHLPQDLAVAQYALFLESVTEFEQRHHCLELAKEADLDVATITKTVVENIRKKDNGEFSHHDLAPALDTGTTEEDRLKIDVIDWLVFDPAQRAEALKQGNAIMRKFLASKKHEAAKEVFVKIPQDSIAEIYNQCEEQGMESPLPAEDDNAIREHLCIRAYLEAHETFNEWFKHMNSVPQKPALIPQPTFTEKVAHEHKEKKYEMDFGIWKGHLDALTADVKEKMYNVLLFVDGGWMVDVREDAKEDHERTHQMVLLRKLCLPMLCFLLHTILHSTGQYQECLQLADMVSSERHKLYLVFSKEELRKLLQKLRESSLMLLDQGLDPLGYEIQL
B8: sp¦P23381¦SYWC_HUMAN (protein, UniProt P23381 2-471, looked up)
Tryptophan--tRNA ligase, …: PNSEPASLLELFNSIATQGELVRSLKAGNASKDEIDSAVKMLVSLKMSYKAAAGEDYKADCPPGNPAPTSNHGPDATEAEEDFVDPWTVQTSSAKGIDYDKLIVRFGSSKIDKELINRIERATGQRPHHFLRRGIFFSHRDMNQVLDAYENKKPFYLYTGRGPSSEAMHVGHLIPFIFTKWLQDVFNVPLVIQMTDDEKYLWKDLTLDQAYSYAVENAKDIIACGFDINKTFIFSDLDYMGMSSGFYKNVVKIQKHVTFNQVKGIFGFTDSDCIGKISFPAIQAAPSFSNSFPQIFRDRTDIQCLIPCAIDQDPYFRMTRDVAPRIGYPKPALLHSTFFPALQGAQTKMSASDPNSSIFLTDTAKQIKTKVNKHAFSGGRDTIEEHRQFGGNCDVDVSFMYLTFFLEDDDKLEQIRKDYTSGAMLTGELKKALIEVLQPLIAEHQARRKEVTDEIVKEFMTPRKLSFDFQ
B9: sp¦Q15907¦RB11B_HUMAN (protein, UniProt Q15907 2-215, looked up)
Ras-related protein Rab-11B: GTRDDEYDYLFKVVLIGDSGVGKSNLLSRFTRNEFNLESKSTIGVEFATRSIQVDGKTIKAQIWDTAGQERYRAITSAYYRGAVGALLVYDIAKHLTYENVERWLKELRDHADSNIVIMLVGNKSDLRHLRAVPTDEARAFAEKNNLSFIETSALDSTNVEEAFKNILTEIYRIVSQKQIADRAAHDESPGNNVVDISVPPTTDGQKPNKLQCC
B10: sp¦P46977¦STT3A_HUMAN (protein, UniProt P46977 1-705, looked up)
Dolichyl-diphosphooligosacchar …: MTKFGFLRLSYEKQDTLLKLLILSMAAVLSFSTRLFAVLRFESVIHEFDPYFNYRTTRFLAEEGFYKFHNWFDDRAWYPLGRIIGGTIYPGLMITSAAIYHVLHFFHITIDIRNVCVFLAPLFSSFTTIVTYHLTKELKDAGAGLLAAAMIAVVPGYISRSVAGSYDNEGIAIFCMLLTYYMWIKAVKTGSICWAAKCALAYFYMVSSWGGYVFLINLIPLHVLVLMLTGRFSHRIYVAYCTVYCLGTILSMQISFVGFQPVLSSEHMAAFGVFGLCQIHAFVDYLRSKLNPQQFEVLFRSVISLVGFVLLTVGALLMLTGKISPWTGRFYSLLDPSYAKNNIPIIASVSEHQPTTWSSYYFDLQLLVFMFPVGLYYCFSNLSDARIFIIMYGVTSMYFSAVMVRLMLVLAPVMCILSGIGVSQVLSTYMKNLDISRPDKKSKKQQDSTYPIKNEVASGMILVMAFFLITYTFHSTWVTSEAYSSPSIVLSARGGDGSRIIFDDFREAYYWLRHNTPEDAKVMSWWDYGYQITAMANRTILVDNNTWNNTHISRVGQAMASTEEKAYEIMRELDVSYVLVIFGGLTGYSSDDINKFLWMVRIGGSTDTGKHIKENDYYTPTGEFRVDREGSPVLLNCLMYKMCYYRFGQVYTEAKRPPGFDRVRNAEIGNKDFELDVLEEAYTTEHWLVRIYKVKDLDNRGLSRT
B11: sp¦P30048¦PRDX3_HUMAN (protein, UniProt P30048 62-256, looked up)
Thioredoxin-dependent …: APAVTQHAPYFKGTAVVNGEFKDLSLDDFKGKYLVLFFYPLDFTFVCPTEIVAFSDKANEFHDVNCEVVAVSVDSHFSHLAWINTPRKNGGLGHMNIALLSDLTKQISRDYGVLLEGSGLALRGLFIIDPNGVIKHLSVNDLPVGRSVEETLRLVKAFQYVETHGEVCPANWTPDSPTIKPSPAASKEYFQKVNQ

Tested on: human HL60 cells
Assay: SWATH-MS proteomics, differential protein representation, akirin2 KO vs WT HL60 cells
Assay type: cell-based
Details: KO vs WT; akirin2 KO vs WT HL60 cells; sheet "Under-represented in KO"
In short: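 Differential representation compares akirin2 KO with WT HL60 across three biological replicates, 5 µg digest each, acquired by data-independent SWATH on a 120-min gradient. Library built from combined IDA runs searched with Paragon; proteins accepted at 1% FDR, with total-area-sum normalization.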

Compared with B1, B2 is higher in “Fold Change” value: 0.6196 for the first, 0.6204 for the second.

Compared with B3, B4 is lower in “Fold Change” value: 0.6247 for the first, 0.62 for the second.

B1 and B2 are within 0.2 log units of each other in “Log (Fold Change)” value: -0.2079 for the first, -0.2073 for the second.

B3 and B4 are within 0.2 log units of each other in “Log (Fold Change)” value: -0.2043 for the first, -0.2076 for the second.

Same assay, conditions: akirin2 KO vs WT HL60 cells; sheet "Under-represented in KO"

Going from B5 to B6, the “Fold Change” value falls from 0.6441 to 0.6378.

Going from B7 to B8, the “Fold Change” value rises from 0.6316 to 0.6341.

First: B9
Second: B10
The “Fold Change” value of the first is higher: 0.6332 for the first, 0.6295 for the second.

B11 was tested, and the “Fold Change” value was 0.6339.

B5 and B6 are within 0.2 log units of each other in “Log (Fold Change)” value: -0.191 for the first, -0.1953 for the second.

B7 and B8 are within 0.2 log units of each other in “Log (Fold Change)” value: -0.1995 for the first, -0.1979 for the second.

B9 and B10 are within 0.2 log units of each other in “Log (Fold Change)” value: -0.1984 for the first, -0.201 for the second.

In the case of B11, the “Log (Fold Change)” value is reported as -0.198.
